This data set relates to ATP. The data set is described as follows: switch fluorescence ratio, 500 uM ATP over buffer (Cy3 cluster intensity, sum of 5 cycles each) (fold (ratio)); higher = stronger signal-on switching upon ATP binding; sequences stand for … in TCGTCGGCAGCGTCAGATGTGTATAAGAGACAGTTTTTTTTTTTTTTTTTTTTTTTTT…TC. Conditions: aptamer strand: ATP DNA aptamer (quencher-CACCTGGGGGAGTATTGCGGAGGAAGG + anchor), 100 nM annealed; ATP concentration: 500 uM. Summed up: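 Switching-strand clusters labelled with Cy3 on a modified Illumina MiSeq flow-cell were annealed to 100 nM quencher-labelled ATP aptamer, imaged in selection buffer, and re-imaged after 15 min with 500 uM ATP at 22 °C. This was done over five cycles with NaOH stripping and re-annealing in between. The fluorescence ratio is summed target-cycle over summed buffer-cycle Cy3 intensity per cluster, averaged per switch-domain sequence, excluding clusters outside 100-1000 RFU.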

± gives the standard deviation of the averaged measurements.
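Note: ATP exposure 15 min at 22 °C before imaging.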

Consider GAGGGCCAGG, for which the switch fluorescence ratio amounted to 1.13 ± 0.076.
As to GAGGGCCTGA, the switch fluorescence ratio was determined as 1.01 ± 0.012.
Then GAGGGCGGGG, with 1.05 ± 0.077.
For the sequence GAGGGCTAAA, the switch fluorescence ratio was 1.06 ± 0.082.
Turning to GAGGGCTACT, the switch fluorescence ratio worked out at 1.04 ± 0.041.
For GAGGGCTTTG, the switch fluorescence ratio stood at 1 ± 0.031.
In the case of GAGGGGAAAT it was 0.999 ± 0.029; in that of GAGGGGAGAG, 1 ± 0.016; in that of GAGGGGAGCT, 1.01 ± 0.045.
As for GAGGGGAGGC, the switch fluorescence ratio worked out at 1.29 ± 0.39.
Then GAGGGGCACG, with 0.935 ± 0.1; and GAGGGGCCAG, with 0.988 ± 0.027.
Then GAGGGGGATC, with 1.02 ± 0.035.
In the case of GAGGGGGCAA it was 1.01 ± 0.016; in that of GAGGGGGGGG, 1.01 ± 0.039; in that of GAGGGGGGTC, 1.04 ± 0.064.
As for GAGGGGGTGG, the switch fluorescence ratio was determined as 1 ± 0.064.
Then GAGGGGTTCT, with 0.984 ± 0.043; and GAGGGTAATA, with 1.01 ± 0.017.
As for GAGGGTAGTT, the switch fluorescence ratio stood at 1.031 ± 0.0055.
GAGGGTCGGG: the switch fluorescence ratio was determined as 0.988 ± 0.033.
GAGGGTGGGG: the switch fluorescence ratio was determined as 1.01 ± 0.04.
For GAGGGTGTCA, the switch fluorescence ratio came to 0.995 ± 0.017.
Then GAGGGTTAC, with 1.006 ± 0.0062; and GAGGGTTGCT, with 1.01 ± 0.036; and GAGGTAAAGC, with 1 ± 0.08.
Regarding GAGGTAATC, the switch fluorescence ratio was 1.02 ± 0.037.
In the case of GAGGTAGAGG it was 0.986 ± 0.026; in that of GAGGTAGATG, 0.991 ± 0.0012; in that of GAGGTAGTGG, 0.968 ± 0.027.
Then GAGGTATCAT, with 0.9847 ± 0.0073; and GAGGTATTTT, with 1.34 ± 0.65.
Take GAGGTCGTGA: the switch fluorescence ratio is 0.975 ± 0.019.
Then GAGGTGAAGA, with 0.979 ± 0.046.
In the case of GAGGTGAAGG, the switch fluorescence ratio is 1.04 ± 0.055.
In the case of GAGGTGAGG it was 0.989 ± 0.011; in that of GAGGTGGTAG, 0.951 ± 0.034.
As for GAGGTGGTTA, the switch fluorescence ratio was 0.976 ± 0.015.
Regarding GAGGTGTAGC, the switch fluorescence ratio stood at 1.01 ± 0.028.
In the case of GAGGTGTTTT it was 1.01 ± 0.06; in that of GAGGTTACGC, 0.988 ± 0.053.
With GAGGTTAGCT, the switch fluorescence ratio was 0.976 ± 0.046.
As to GAGGTTAGGT, the switch fluorescence ratio stood at 0.981 ± 0.01.
For GAGGTTATAG, the switch fluorescence ratio was determined as 0.998 ± 0.02.
Regarding GAGGTTATTG, the switch fluorescence ratio amounted to 0.99 ± 0.025.
Then GAGGTTCTAT, with 1.0012 ± 0.00094; and GAGGTTGTCA, with 0.958 ± 0.038; and GAGGTTGTG, with 1.01 ± 0.025.
Consider GAGTAAGTA, for which the switch fluorescence ratio came out at 1.002 ± 0.0064.
As to GAGTAATGCT, the switch fluorescence ratio was 1.27 ± 0.017.
Consider GAGTACAAAG, for which the switch fluorescence ratio stood at 1.02 ± 0.0041.
In the case of GAGTACAGCT, the switch fluorescence ratio was 1.01 ± 0.018.
In the case of GAGTACTGTA, the switch fluorescence ratio was 1.14 ± 0.053.
On to GAGTAGAGGG, for which the switch fluorescence ratio was found to be 0.954 ± 0.014.
Take GAGTAGCATG: the switch fluorescence ratio is 0.993 ± 0.022.
For the sequence GAGTAGGAGC, the switch fluorescence ratio amounted to 1.02 ± 0.033.
In the case of GAGTAGGCTA it was 0.973 ± 0.035; in that of GAGTAGTGCT, 1.03 ± 0.018.
GAGTAGTGGG: the switch fluorescence ratio came out at 0.982 ± 0.037.
Take GAGTAGTGTT: the switch fluorescence ratio worked out at 0.984 ± 0.02.
In the case of GAGTAGTTGT, the switch fluorescence ratio amounted to 0.9969 ± 0.0083.
In the case of GAGTATGAGA it was 1.009 ± 0.01; in that of GAGTATTAGG, 1.02 ± 0.0094.
As for GAGTATTTTC, the switch fluorescence ratio is 1.015 ± 0.0065.
For GAGTCAGAGG, the switch fluorescence ratio was determined as 0.989 ± 0.039.
For the sequence GAGTCAGC, the switch fluorescence ratio worked out at 1.08 ± 0.14.
For the sequence GAGTCAGTAT, the switch fluorescence ratio was found to be 1.03 ± 0.039.
GAGTCGAATT: the switch fluorescence ratio was found to be 0.9738 ± 0.0058.
GAGTCGGATG: the switch fluorescence ratio came to 0.967 ± 0.012.
As to GAGTCTTTGG, the switch fluorescence ratio amounted to 0.973 ± 0.021.
As to GAGTCTTTTG, the switch fluorescence ratio was 1.013 ± 0.0096.
Regarding GAGTGAATTT, the switch fluorescence ratio came out at 1.0074 ± 0.00014.
Then GAGTGAGACT, with 1.02 ± 0.072; and GAGTGATAAG, with 1 ± 0.017.
On to GAGTGCGCTG, for which the switch fluorescence ratio worked out at 1.02 ± 0.04.
In the case of GAGTGCGGAT it was 0.98 ± 0.026; in that of GAGTGCTATT, 0.981 ± 0.013.
Consider GAGTGGAGTG, for which the switch fluorescence ratio is 1.02 ± 0.079.
Then GAGTGGGATT, with 0.981 ± 0.011.
In the case of GAGTGGGGTT, the switch fluorescence ratio came to 1.011 ± 0.0024.
In the case of GAGTGGGTCG, the switch fluorescence ratio worked out at 0.983 ± 0.024.
In the case of GAGTGGTAGG it was 1.01 ± 0.021.
Turning to GAGTGTAGTC, the switch fluorescence ratio is 1.06 ± 0.011.
On to GAGTGTCGCC, for which the switch fluorescence ratio turned out to be 0.99 ± 0.021.
Turning to GAGTGTGATG, the switch fluorescence ratio amounted to 0.97 ± 0.021.
In the case of GAGTTACATG it was 1.02 ± 0.048; in that of GAGTTAGAAG, 0.9657 ± 0.0014.
Regarding GAGTTAGTCA, the switch fluorescence ratio came out at 0.975 ± 0.024.
Turning to GAGTTAGTTG, the switch fluorescence ratio was 0.987 ± 0.093.
Take GAGTTATTGT: the switch fluorescence ratio was determined as 0.9806 ± 0.0095.
Then GAGTTATTTT, with 0.976 ± 0.017; and GAGTTCGTAA, with 1.46 ± 0.15.
As for GAGTTCTTAG, the switch fluorescence ratio was 0.9587 ± 0.0011.
As to GAGTTCTTCA, the switch fluorescence ratio was determined as 0.973 ± 0.015.
Turning to GAGTTGAGTT, the switch fluorescence ratio turned out to be 1.01 ± 0.074.
For GAGTTGGGTT, the switch fluorescence ratio worked out at 1.01 ± 0.034.
Turning to GAGTTGTGCC, the switch fluorescence ratio is 1.1 ± 0.032.
In the case of GAGTTTCATG it was 0.963 ± 0.015; in that of GAGTTTGAAA, 0.993 ± 0.041; in that of GAGTTTGAAT, 0.969 ± 0.021.
Consider GAGTTTGTGT, for which the switch fluorescence ratio came to 0.996 ± 0.011.
For the sequence GAGTTTGTTG, the switch fluorescence ratio turned out to be 0.985 ± 0.014.
Then GAGTTTTTTT, with 0.987 ± 0.033; and GATAAACGAT, with 1.02 ± 0.031; and GATAAAGTGG, with 0.995 ± 0.041.
Then GATAAGTCGG, with 1.009 ± 0.01; and GATAATCTGT, with 0.984 ± 0.048.
In the case of GATAATTGAG, the switch fluorescence ratio was determined as 1.04 ± 0.044.
GATAATTTGT: the switch fluorescence ratio came to 0.973 ± 0.065.
Turning to GATACATTAT, the switch fluorescence ratio was found to be 0.998 ± 0.028.
Turning to GATACCGTGC, the switch fluorescence ratio amounted to 1.18 ± 0.061.
Take GATACCTTTT: the switch fluorescence ratio is 1.13 ± 0.24.
For GATACGAACG, the switch fluorescence ratio was 1.32 ± 0.043.
Take GATACGAAGT: the switch fluorescence ratio came to 0.981 ± 0.028.
As for GATACGGGGA, the switch fluorescence ratio is 0.988 ± 0.029.
In the case of GATACTGAAC it was 1.3 ± 0.024; in that of GATAGACGGT, 1.01 ± 0.047.
Then GATAGAGATT, with 0.9961 ± 0.0066; and GATAGAGTAG, with 1.016 ± 0.0019; and GATAGCGGGA, with 0.97 ± 0.058.
